Measured values as given in paper PMC8385992.

Columns and labels:
Assay in all cases: SEC
[1] = target: SARS-CoV-2 Nsp15 S294A (SARS-CoV-2)
[2] = target: SARS-CoV-2 Nsp15 W333A (SARS-CoV-2)
[3] = target: SARS-CoV-2 Nsp15 Y343A (SARS-CoV-2)
[4] = target: SARS-CoV-2 Nsp15 N278A (SARS-CoV-2)

Substance: SARS-CoV-2 Nsp15 S294A (enzyme)
- stoichiometry N [1]: 6

Substance: SARS-CoV-2 Nsp15 W333A (enzyme)
- stoichiometry N [2]: 6

Substance: SARS-CoV-2 Nsp15 Y343A (enzyme)
- stoichiometry N [3]: 6

Substance: SARS-CoV-2 Nsp15 N278A (enzyme)
- stoichiometry N [4]: 6
